Results published in patent US20050042213.
Read-outs that look alike come from different tables or passages of the source.

Tests used:
[1] = biological target: T1, pro-heparanase (H60), purified recombinant human 60 kDa latent heparanase
T1 chain: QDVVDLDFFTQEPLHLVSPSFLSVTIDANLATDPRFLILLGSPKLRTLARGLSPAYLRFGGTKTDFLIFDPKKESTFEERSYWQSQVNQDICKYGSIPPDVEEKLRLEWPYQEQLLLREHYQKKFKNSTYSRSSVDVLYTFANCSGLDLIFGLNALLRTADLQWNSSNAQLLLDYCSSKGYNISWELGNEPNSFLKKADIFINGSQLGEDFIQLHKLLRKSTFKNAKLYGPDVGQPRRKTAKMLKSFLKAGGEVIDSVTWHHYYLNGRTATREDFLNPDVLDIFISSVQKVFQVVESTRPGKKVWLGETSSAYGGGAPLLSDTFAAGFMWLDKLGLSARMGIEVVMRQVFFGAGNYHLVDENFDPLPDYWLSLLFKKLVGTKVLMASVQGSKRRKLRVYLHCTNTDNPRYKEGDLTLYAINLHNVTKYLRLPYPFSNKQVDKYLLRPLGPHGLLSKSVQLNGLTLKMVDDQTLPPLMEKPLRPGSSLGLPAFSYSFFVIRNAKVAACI

[2] = test system: T2, pro-heparanase (H60), purified recombinant human 60 kDa latent heparanase; remark: listed apart in the source
T2 sequence: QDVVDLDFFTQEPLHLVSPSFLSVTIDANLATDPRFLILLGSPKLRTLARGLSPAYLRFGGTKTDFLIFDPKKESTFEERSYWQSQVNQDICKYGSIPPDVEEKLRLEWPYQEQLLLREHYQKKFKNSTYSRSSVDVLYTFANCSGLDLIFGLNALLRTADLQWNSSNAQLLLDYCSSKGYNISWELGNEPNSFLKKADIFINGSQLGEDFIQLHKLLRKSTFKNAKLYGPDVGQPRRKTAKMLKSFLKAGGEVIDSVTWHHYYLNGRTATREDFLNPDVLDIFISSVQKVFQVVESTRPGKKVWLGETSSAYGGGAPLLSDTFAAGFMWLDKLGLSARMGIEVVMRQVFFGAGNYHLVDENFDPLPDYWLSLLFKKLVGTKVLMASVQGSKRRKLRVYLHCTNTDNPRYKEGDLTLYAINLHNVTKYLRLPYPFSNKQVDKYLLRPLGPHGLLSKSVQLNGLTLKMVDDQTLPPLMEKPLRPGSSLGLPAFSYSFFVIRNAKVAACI

B1: elastase from human neutrophils (Calbiochem, 324681) (protein)
chain: IVGGRRARPHAWPFMVSLQLRGGHFCGATLIAPNFVMSAAHCVANVNVRAVRVVLGAHNLSRREPTRQVFAVQRIFENGYDPVNLLNDIVILQLNGSATINANVQVAQLPAQGRRLGNGVQCLAMGWGLLGRNRGIASVLQELNVTVVTSLCRRSNVCTLVRGRQAGVCFGDSGSPLVCNGLIHGIASFVRGGCASGLYPDAFAPVAQFVNWIDSIIQ
heparanase activity after treatment (DMB assay) [1]: treatment of the pro heparanase with cathepsin G or elastase activated the H60
processing of pro-heparanase in vitro (Western blot) [1]: cathepsin G (FIG. 18) and elastase (FIG. 5), both serine proteases, cleave the pro-heparanase in-vitro, at or near the N-terminus of the H45

B2: cathepsin G (Sigma, C4428) (enzyme, UniProt P08311 21-244, looked up, species assumed)
Cathepsin G: IIGGRESRPHSRPYMAYLQIQSPAGQSRCGGFLVREDFVLTAAHCWGSNINVTLGAHNIQRRENTQQHITARRAIRHPQYNQRTIQNDIMLLQLSRRVRRNRNVNPVALPRAQEGLRPGTLCTVAGWGRVSMRRGTDTLREVQLRVQRDRQCLRIFGSYDPRRQICVGDRRERKAAFKGDSGGPLLCNNVAHGIVSYGKSSGVPPEVFTRVSSFLPWIRTTMRS
heparanase activity after treatment (DMB assay) [2]: treatment of the pro heparanase with cathepsin G or elastase activated the H60
processing of pro-heparanase in vitro (Western blot) [2]: cathepsin G (FIG. 18) and elastase (FIG. 5), both serine proteases, cleave the pro-heparanase in-vitro, at or near the N-terminus of the H45
